Measured values from patent US20040171074A1, “Structures of substrate binding pockets of SCF complexes” (MOUNT SINAI HOSPITAL, priority 2002, published 2004).
Residue numbers refer to the chain shown, from its start. Numbers in names are those of the source. Entries after “also recorded” stand apart in the source; their conditions may differ.

B1: R467A: mutant cdc4 polypeptide (protein)
chain: MGSFPLAEFPLRDIPVPYSYRVSGGIASSGSVTALVTAAGTHRNSSTAKTVETEDGEEDIDEYQRKRAAGSGESTPERSDFKRVKHDNHKTLHPVNLQNTGAASVDNDGLHNLTDISNDAEKLLMSVDDGSAAPSTLSVNMGVASHNVAAPTTVNAATITGSDVSNNVNSATINNPMEEGALPLSPTASSPGTTTPLAKTTKTINNNNNIADLIESKDSIISPEYLSDEIFSAINNNLPHAYFKNLLFRLVANMDRSELSDLGTLIKDNLKRDLITSLPFEISLKIFNYLQFEDIINSLGVSQNWNKIIRKSTSLWKKLLISENFVSPKGFNSLNLKLSQKYPKLSQQDRLRLSFLENIFILKNWYNPKFVPQRTTLRGHMTSVITCLQFEDNYVITGADDKMIRVYDSINKKFLLQLSGHDGGVWALKYAHGGILVSGSTDRTVRVWDIKKGCCTHVFKGHNSTVACLDIVEYKNIKYIVTGSRDNTLHVWKLPKESSVPDHGEEHDYPLVFHTPEENPYFVGVLRGHMASVRTVSGHGNIVVSGSYDNTLIVWDVAQMKCLYILSGHTDRIYSTIYDHERKRCISASMDTTIRIWDLENIWNNGECSYATNSASPCAKILGAMYTLQGHTALVGLLRLSDKFLVSAAADGSIRGWDANDYSRKFSYHHTNLSAITTFYVSDNILVSGSENQFNIYNLRSGKLVHANILKDADQIWSVNFKGKTLVAAVEKDGQSFLEILDFSKASKINYVSNPVNSSSSSLESISTSLGLTRTTIIP
B2: R534A: mutant cdc4 polypeptide (protein)
chain: B1 chain with A467R, R534A
B3: R485A: mutant cdc4 polypeptide (protein)
chain: B1 chain with A467R, R485A
B4: V384N: mutant cdc4 polypeptide (protein)
chain: B1 chain with V384N, A467R
B5: R443D: mutant cdc4 polypeptide (protein)
chain: B1 chain with R443D, A467R
B6: W426A: mutant cdc4 polypeptide (protein)
chain: B1 chain with W426A, A467R

Experiments:
Skp1 = target: T1, Skp1 (Saccharomyces cerevisiae, UniProt P52286); assay: Skp1 binding in vitro (pull down); design: species or system yeast
T1 construct: GST (N); made in house; host or cells: bacteria
T1 sequence (P52286 2-194 limits assumed): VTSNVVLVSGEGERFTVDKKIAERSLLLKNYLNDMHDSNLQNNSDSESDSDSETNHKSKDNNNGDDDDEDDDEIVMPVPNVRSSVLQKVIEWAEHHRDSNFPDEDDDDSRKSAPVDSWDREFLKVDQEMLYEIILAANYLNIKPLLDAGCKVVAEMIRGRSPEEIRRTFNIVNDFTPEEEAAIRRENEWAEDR
Source text: In order to probe the functional importance of amino acid residues on the highly conserved peptide binding surface, a panel of Cdc4 mutants (both single and double mutant) were generated and tested each for its ability to bind phospho Sic1 and Skp1 in vitro using a pull down assay and for its ability to substitute for wt-cdc4 in vivo using a cell viability assay. Of 12 single site mutants tested, only Arg 467. Arg485Ala Arg534Ala, and Trp 426 abolished both cell viability in vivo and phosphoSic1 binding in vitro. Together, these residues compose most of the interaction surface with the pThr, Pro CPD core. […] Presumably in the context of the full SCF complex in vivo this mutant is sufficiently well behaved to bind phospho Sic1.

phospho-Sic1 = assay: P-Sic1 pull down: in vitro capture of phospho-Sic1 on immobilized wild type or mutant Cdc4-GST-Skp1, anti-Sic1 immunoblot; assay type: binding, yeast; details: Sic1 phosphorylated with Cln2-Cdc28, captured onto GST-Skp1/Cdc4 resin, anti-Sic1 detection
Protocol: (§1) Mutational analysis of the CPD binding surface. Mutants were tested in vitro by ability to bind phosphorylated Sic1 and then captured onto GST-Skp1/Cdc4 resin and detected with anti-sic1 antibody. Mutants were tested in vivo by ability to degrade GAL1-SIC1 or various phosphorylation mutants. Sites are as follows: 3=Thr 33, Thr 45, Ser 76; 4=Thr 5, Thr 33, Thr 45, Ser 76; 5=Thr 2, Thr 5, Thr 33, Thr 45, Ser 76; 6=Thr 2, Thr 5, Thr 33, Thr 45, Ser 69, Ser 76; 7=Thr 2, Thr 5, Thr 33, Thr 45, Ser 69, Ser 76, Ser 80. GAL1-SIC1 plasmids were transformed into a cdc4Δ strain containing a copy of CDC4 on a TRP1 ARS CEN plasmid. Strains were incubated for 2 days at 30° C.
Bacterially expressed His6-Sic1 was phosphorylated with Cln2-Cdc28 kinase purified from baculovirus infected Sf9 cells as described before (Nature paper). 1 ug of WT or mutant Cdc4-GST-Skp1, immoblized on GSH-Sepharose resin, was incubated with 0.5 ug phospho-Sic1 at 4 C for 1 h and washed 4 times. Captured complexes were resolved on SDS-PAGE and Sic1 visualized by anti-Sic1 Western blotting and ECL. For IEF-2D analysis, several Sic1 phosphorylation reactions were carried out for different time periods to obtain a spectrum of Sic1 that were phosphorylated at different numbers of its nine CDK sites. This pool of phospho-Sic1 (2.5 ug) was incubated with 5 μg of WT or mutant Cdc4-GST-Skp1 as described above. Different phosphorylation states of Sic1 were separated by denaturing isoelectric focusing (IEF)-2D gel electrophoresis and visualized by anti-Sic1 Western blotting and ECL. IEF was performed using pH 3-10NL Immobiline gel strips and IPGphore IEF system (Amersham pharmacia).
(§2) Cdc4 functional assays. CDC4 mutant alleles were assessed for complementation of a cdc4A strain in a plasmid shuffle assay (Nash et al., 2001). Sensitivity to SIC1 dosage was determined by transformation with pMT837 (GAL1-SIC1) or pMT767 (GAL1-SIC1^T33V) and plating on glucose medium or galactose medium. For in vitro capture of phospho-Sic1 by Cdc4, 0.5 μg of bacterially-expressed ^HIS6Sic1 was phosphorylated with immobilized Cln2-Cdc28 kinase from baculovirus-infected Sf9 cells and then incubated with 1 μg of immobilized wild type or mutant Cdc4^263-744-GST-Skp1, at 4° C. for 1 hr, washed 4 times and visualized by anti-Sic1 immunoblot. For isoelectric focusing (IEF)-2D gel analyses, an evenly distributed pool of phospho-Sic1 isoforms was generated by combining different time points in a Sic1 phosphorylation reaction. 2.5 μg of the phospho-Sic1 pool was bound to 5 μg of immobilized wild type or mutant Cdc4^1-744-GST-Skp1. Captured isoforms were separated by denaturing IEF-2D gel electrophoresis using pH3-10NL Immobiline gel strips (Amersham) and visualized by anti-Sic1 immunoblot. Alternatively, the pool of phospho-Sic1 isoforms was incubated in solution with a ubiquitination reaction mix containing ATP, ubiquitin, yeast E1, Cdc34 and either wild type or mutant SCF^Cdc4 complex, composed of a 1:1 ratio of bacterial Cdc4-GST-Skp1 and insect cell-produced Cdc53-Rbx1, at 30° C. for 1 h as previously described (Nash et al., 2001).

cdc4Δ strain = assay: plasmid shuffle assay: complementation of a cdc4Δ strain by CDC4 alleles; assay type: cell-based, yeast; details: viability of cdc4Δ strain on 5-FOA, 2 days at 30° C.
Protocol: (§3) All mutants on a TRP1 ARS CEN plasmid were transformed into a cdc4Δ strain (MT 1259) containing a wildtype copy of CDC4 on a URA3 ARS CEN plasmid. Cells were plated on either Trp^−Ura^− or 5-FOA medium for 2 days at 30° C. Viable cells on 5-FOA were grown in Trp medium and transformed with either wild type GAL1-SIC1, GAL1-SIC T45A, or GAL1-SIC T33V on a LEU2 ARS CEN pasmid. Cells were then plated on Leu- Trp-plates containing either glucose or galactose and incubated for 2 days at 30° C.
as §2

[1] = tested on: cdc4Δ strain overexpressing SIC1; assay: sensitivity to SIC1 dosage: GAL1-SIC1 overexpression in strains bearing CDC4 alleles; assay type: cell-based, yeast; details: for gal Sic1T33V: GAL1-SIC1 T33V (partially stabilized Sic1); for gal Sic1T33V / gal Sic1T45A / gal Sic1 wt: galactose, 2 days at 30° C.; for gal Sic1T45A: GAL1-SIC1 T45A; for gal Sic1 wt: GAL1-SIC1 wild type; for viability / sensitivity to increased SIC1 dosage: Sic1 wt or stabilized Sic1(T33V) or Sic1(T45A) over-expressed under a galactose promoter
Protocol: as §1, §3
Since the cell viability assay nay be masking subtle functional roles for the conserved Cdc4 residues, function was assayed in vivo under more stringent conditions in which Sic1 wt or the stabilized mutants, Sic1 (T33V) or Sic1(T45A) are over-expressed under a galactose promoter. This should amplify defects in cdc4 function. Under these conditions, Trp 717, Tyr 548 and the double mutant K404D/R443D are lethal showing that these residues are in fact important for functions
as §2

| Molecule | Skp1 binding (Skp1) | P-Sic1 pull down (phospho-Sic1) | shuffle (cdc4Δ strain) | gal Sic1T33V [1] | gal Sic1T45A [1] | gal Sic1 wt [1] | viability / sensitivity to increased SIC1 dosage [1] | also measured |
| --- | --- | --- | --- | --- | --- | --- | --- | --- |
| B1 | fully competent | no bind | dead |  |  |  |  | P-Sic1 pull down (phospho-Sic1; listed as Arg 467): abolished; P-Sic1 pull down (phospho-Sic1; listed as Arg467Ala): unable to bind; shuffle (cdc4Δ strain; listed as Arg 467): abolished; shuffle (cdc4Δ strain; listed as Arg467Ala): unable |
| B2 | fully competent | no bind | dead |  |  |  |  | P-Sic1 pull down (phospho-Sic1; listed as Arg534Ala): abolished; also recorded: unable to bind; shuffle (cdc4Δ strain; listed as Arg534Ala): abolished; also recorded: unable |
| B3 | fully competent | no bind | dead |  |  |  |  | P-Sic1 pull down (phospho-Sic1; listed as Arg485Ala): abolished; also recorded: unable to bind; shuffle (cdc4Δ strain; listed as Arg485Ala): abolished; also recorded: unable |
| B4 |  | bind | alive | alive | dead | alive | indistinguishable from wild type | P-Sic1 pull down (phospho-Sic1; listed as Val384): fully competent; P-Sic1 pull down (phospho-Sic1; listed as Val384Asn): indistinguishable from wild type; shuffle (cdc4Δ strain; listed as Val384): viable; shuffle (cdc4Δ strain; listed as Val384Asn): indistinguishable from wild type |
| B5 |  | bind | alive | alive | dead | alive | indistinguishable from wild type | P-Sic1 pull down (phospho-Sic1; listed as Arg443Asp): indistinguishable from wild type; shuffle (cdc4Δ strain; listed as Arg443Asp): indistinguishable from wild type |
| B6 | fully competent | no bind | dead |  |  |  |  | P-Sic1 pull down (phospho-Sic1; listed as Trp 426): abolished; P-Sic1 pull down (phospho-Sic1; listed as Trp426Ala): unable to bind; shuffle (cdc4Δ strain; listed as Trp 426): abolished; shuffle (cdc4Δ strain; listed as Trp426Ala): unable |
